Laboratory results from patent US20240352438A1, “MEANS AND METHODS FOR DETOXIFYING OCHRATOXIN A” (DSM Austria GmbH, priority 2021, published 2024).

What was measured:
[1] = Enzymatic activity comparison: activity remaining after 65° C. for 10 min at pH 6.0, relative to SEQ ID NO: 1; format: physicochemical
Method: To compare the temperature behavior and thermostability of selected enzymes to one another, enzyme was incubated at 65° C. for 10 min at pH 6.0. The enzymatic activity remaining after incubation was compared to the remaining activity of the enzyme of SEQ ID NO: 1 after incubation, the latter being set to 100%, see Table 16.

[2] = OTA detoxification activity assay (specific activity, fluorescence reduction ex/em 390/450 nm); format: biochemical; details: SEQ ID NO: 1 = 100%
Summary of the method: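 Recombinant enzyme preparation with 200 ng/mL OTA in 100 mM sodium phosphate, at pH 6.0 and pH 7.5, 37° C. Degradation followed as the fall in fluorescence at ex/em 390/450 nm. Specific activity taken from the initial linear slope; one unit degrades 1 μmol OTA per min at a starting OTA of […].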

Molecule	Enzymatic activity remaining after incubation, compared to SEQ ID NO: 1 (set to 100%) [1] [%]	Specific OTA detoxification activities in % compared to the enzyme of SEQ ID NO: 1, pH 6.0 [2] [%]	Specific OTA detoxification activities in % compared to the enzyme of SEQ ID NO: 1, pH 7.5 [2] [%]
119 (protein, exemplary polypeptide) MTTRTRILTAFLSLLAANACAADAAPAAPHTVVLRAARMFDGASGKLVDHPQLTIVGNKIVRIAQGDKAEVPAGAEVVDLGDATLLPGFIDAHVHLSGQSSDNWYGDFFDNMMRFPAEQALRGAYYARITLEAGFTSVRDVGSTDWVALGLRNAIDAGKVPGPRMLVSNYAVGSTGGHADQDPIPPHKLPLAGPLQGVCNGPEECRAAVRYQIKYGANVIKFMPSGGVLSLSDPVDAPELSQDEMNAVIGESHAWGRKVAAHAHGDKAAKMAVAAGVDSIEHGSFIEDDTLRAMKAKNVYLVPTISAIAHVEEKIGTFPPVIAEKGRAAAAHLRQTFRHAVQIGVPIALGTDAGVGAHGSNAREFRYMVENGLTPAQALLAGTANAARLLGTFDRVGTLEAGKLADVVAVPGNPIADITVTERPLFVMKDGVVVRRDAVR	45	107	101
136 (protein, exemplary polypeptide) MTTRTRILTAFLSLLAANACAADAAPAAPHTVVLRAARMFDGASGKLVDHPQLTIVGNKIVRIAQGDKAEVPAGAEVVDLGDATLLPGFIDAHVHLDGQSSDNWYGDFFDNMMRFPAEQALYGAYYARITLEAGFTSVRDVGSTDWVALGLRNAIDAGKVPGPRMLVSNYAVGSTGGHADQDPIPPHKLPLAGPLQGVCNGPEECRAAVRYQIKYGANVIKFMPSGGVLSLSDPVDAPELSQDEMNAVIGESHAWGRKVAAHAHGDKAAKMAVAAGVDSIEHGSFIEDDTLRAMKAKNVYLVPTISAIAHVEEKIGTFPPVIAEKGRAAAAHLRQTFRHAVQIGVPIALGTDAGVGAHGSNAREFRYMVENGLTPAQALLAGTANAARLLGTFDRVGTLEAGKLADVVAVPGNPIADITVTERPLFVMKDGVVVRRDAVR	36	64	48
124 (protein, exemplary polypeptide) MTTRTRILTAFLSLLAANACAADAAPAAPHTVVLRAARMFDGASGKLVDHPQLTIVGNKIVRIAQGDKAEVPAGAEVVDLGDATLLPGFIDAHVHLSGQSSDNWYGDFFDNMMRFPAEQALYGAYYARITLEAGFTSVRDVGSTDWVALGLRNAIDAGKVPGPRMLVSNYAVGSTGGHADQDPIPPHKLPLAGPLQGVCNGPEECRAAVRYQIKYGANVIKFMPSGGVLSLSDPVDAPELSQDEMNAVIGESHAWGRKVAAHAHGDKAAKMAVAAGVDSIEHGSFIEDDTLRAMKAKNVYLVPTISAIAHVEEKIGYFPPVIAEKGRAAAAHLRQTFRHAVQIGVPIALGTDAGVGAHGSNAREFRYMVENGLTPAQALLAGTANAARLLGTFDRVGTLEAGKLADVVAVPGNPIADITVTERPLFVMKDGVVVRRDAVR	42	87	78
128 (protein, exemplary polypeptide) MTTRTRILTAFLSLLAANACAADAAPAAPHTVVLRCARMFDGASGKLVDHPQLTIVGNKIVRIAQGDKAEVPAGAEVVDLGDATCLPGFIDAHVHLSGQSSDNWYGDFFDNMMRFPAEQALYGAYYARITLEAGFTSVRDVGSTDWVALGLRNAIDAGKVPGPRMLVSNYAVGSTGGHADQDPIPPHKLPLAGPLQGVCNGPEECRAAVRYQIKYGANVIKFMPSGGVLSLSDPVDAPELSQDEMNAVIGESHAWGRKVAAHAHGDKAAKMAVAAGVDSIEHGSFIEDDTLRAMKAKNVYLVPTISAIAHVEEKIGTFPPVIAEKGRAAAAHLRQTFRHAVQIGVPIALGTDAGVGAHGSNAREFRYMVENGLTPAQALLAGTANAARLLGTFDRVGTLEAGKLADVVAVPGNPIADITVTERPLFVMKDGVVVRRDAVR	84	67	73
121 (protein, exemplary polypeptide) MTTRTRILTAFLSLLAANACAADAAPAAPHTVVLRAARMFDGASGKLVDHPQLTIVGNKIVRIAQGDKAEVPAGAEVVDLGDATLLPGFIDAHVHLSGQSSDNWYGDFYDNMMRFPAEQALYGAYYARITLEAGFTSVRDVGSTDWVALGLRNAIDAGKVPGPRMLVSNYAVGSTGGHADQDPIPPHKLPLAGPLQGVCNGPEECRAAVRYQIKYGANVIKFMPSGGVLSLSDPVDAPELSQDEMNAVIGESHAWGRKVAAHAHGDKAAKMAVAAGVDSIEHGSFIEDDTLRAMKAKNVYLVPTISAIAHVEEKIGTFPPVIAEKGRAAAAHLRQTFRHAVQIGVPIALGTDAGVGAHGSNAREFRYMVENGLTPAQALLAGTANAARLLGTFDRVGTLEAGKLADVVAVPGNPIADITVTERPLFVMKDGVVVRRDAVR	40	84	78
122 (protein, exemplary polypeptide) MTTRTRILTAFLSLLAANACAADAAPAAPHTVVLRAARMFDGASGKLVDHPQLTIVGNKIVRIAQGDKAEVPAGAEVVDLGDATLLPGFIDAHVHLSGQSSDNWYGDFFDNMMRFPAEQALYGAYYARITLEAGFTSVRDVGSTDWVALGLRNAIDAGKVPGPRMLVSNYAVGSTGGHADQDPIPPHKLPLAGPLQGVCNGPEECRAAVRYQIKYGANVIKFMPSGGVLSLSDPVDAPELSPDEMNAVIGESHAWGRKVAAHAHGDKAAKMAVAAGVDSIEHGSFIEDDTLRAMKAKNVYLVPTISAIAHVEEKIGTFPPVIAEKGRAAAAHLRQTFRHAVQIGVPIALGTDAGVGAHGSNAREFRYMVENGLTPAQALLAGTANAARLLGTFDRVGTLEAGKLADVVAVPGNPIADITVTERPLFVMKDGVVVRRDAVR	40	59	80
125 (protein, exemplary polypeptide) MTTRTRILTAFLSLLAANACAADAAPAAPHTVVLRAARMFDGASGKLVDHPQLTIVGNKIVRIAQGDKAEVPAGAEVVDLGDATLLPGFIDAHVHLSGQSSDNWYGDFFDNMMRFPAEQALYGAYYARITLEAGFTSVRDVGSTDWVALGLRNAIDAGKVPGPRMLVSNYAVGSTGGHADQDPIPPHKLPLAGPLQGVCNGPEECRAAVRYQIKYGANVIKFMPSGGVLSLSDPVDAPELSQDEMNAVIGESHAWGRKVAAHAHGDKAAKMAVAAGVDSIEHGSFIEDDTLRAMKAKNVYLVPTISAIAHVEEKIGTYPPVIAEKGRAAAAHLRQTFRHAVQIGVPIALGTDAGVGAHGSNAREFRYMVENGLTPAQALLAGTANAARLLGTFDRVGTLEAGKLADVVAVPGNPIADITVTERPLFVMKDGVVVRRDAVR	100	58	94
137 (protein, exemplary polypeptide) MTTRTRILTAFLSLLAANACAADAAPAAPHTVVLRAARMFDGASGKLVDHPQLTIVGNKIVRIAQGDKAEVPAGAEVVDLGDATLLPGFIDAHVHLNGQSSDNWYGDFFDNMMRFPAEQALYGAYYARITLEAGFTSVRDVGSTDWVALGLRNAIDAGKVPGPRMLVSNYAVGSTGGHADQDPIPPHKLPLAGPLQGVCNGPEECRAAVRYQIKYGANVIKFMPSGGVLSLSDPVDAPELSQDEMNAVIGESHAWGRKVAAHAHGDKAAKMAVAAGVDSIEHGSFIEDDTLRAMKAKNVYLVPTISAIAHVEEKIGTFPPVIAEKGRAAAAHLRQTFRHAVQIGVPIALGTDAGVGAHGSNAREFRYMVENGLTPAQALLAGTANAARLLGTFDRVGTLEAGKLADVVAVPGNPIADITVTERPLFVMKDGVVVRRDAVR	48	86	93
127 (protein, exemplary polypeptide) MTTRTRILTAFLSLLAANACAADAAPAAPHTVVLRAARMFDGASGKLVDHPQLTIVGNKIVRIAQGDKAEVPAGAEVVDLGDATLLPGFIDAHVHLSGQSSDNWYGDFFDNMMRFPAEQALYGAYYARITLEAGFTSVRDVGSTDWVALGLRNAIDAGKVPGPRMLVSNYAVGSTGGHADQDPIPPHKLPLAGPLQGVCNGPEECRAAVRYQIKYGANVIKFMPSGGVLSLSDPVDAPELSQDEMNAVIGESHAWGRYVAAHAHGDKAAKMAVAAGVDSIEHGSFIEDDTLRAMKAKNVYLVPTISAIAHVEEKIGTFPPVIAEKGRAAAAHLRQTFRHAVQIGVPIALGTDAGVGAHGSNAREFRYMVENGLTPAQALLAGTANAARLLRTFDRVGTLEAGKLADVVAVPGNPIADITVTERPLFVMKDGVVVRRDAVR	64	78	82
120 (protein, exemplary polypeptide) MTTRTRILTAFLSLLAANACAADAAPAAPHTVVLRAARMFDGASGKLVDHPQLTIVGNKIVRIAQGDKAEVPAGAEVVDLGDATLLPGFIDAHVHLSGQSSDNWYGDFFDNMMRFPAEQALYGAYWARITLEAGFTSVRDVGSTDWVALGLRNAIDAGKVPGPRMLVSNYAVGSTGGHADQDPIPPHKLPLAGPLQGVCNGPEECRAAVRYQIKYGANVIKFMPSGGVLSLSDPVDAPELSQDEMNAVIGESHAWGRKVAAHAHGDKAAKMAVAAGVDSIEHGSFIEDDTLRAMKAKNVYLVPTISAIAHVEEKIGTFPPVIAEKGRAAAAHLRQTFRHAVQIGVPIALGTDAGVGAHGSNAREFRYMVENGLTPAQALLAGTANAARLLGTFDRVGTLEAGKLADVVAVPGNPIADITVTERPLFVMKDGVVVRRDAVR	23	85	90
